The experiment deals with MUC2 VWD3 domain alone, produced as a shorter recombinant protein without the VWD1D2 domains (human).

In general, stoichiometry N refers to the number of molecules, sites or subunits per partner or assembly. In the case of “MUC2 VWD3 domain alone, produced as a shorter recombinant protein without the VWD1D2 domains (domain or fragment)”, the stoichiometry N turned out to be 3.

(Values after PMC4868133.)
